In patent US20240424060A1 (DOMPE FARMACEUTICI, published 2024):

B1: p75^NTR receptor immobilized on the SPR sensor surface (receptor)
chain: KEACPTGLYTHSGECCKACNLGEGVAQPCGANQTVCEPCLDSVTFSDVVSATEPCKPCTECVGLQSMSAPCVEADDAVCRCAYGYYQDETTGRCEACRVCEAGSGLVFSCQDKQNTVCEECPDGTYSDEANHVDPCLPCTVCEDTERQLRECTRWADAECEEIPGRWITRSTPPEGSDSTAPSTQEPEAPPEQDLIASTVAGVVTTVMGSSQPVVTRGTTDN
B2: TrKA receptor immobilized on the SPR sensor surface (receptor)
chain: AAPCPDACCPHGSSGLRCTRDGALDSLHHLPGAENLTELYIENQQHLQHLELRDLRGLGELRNLTIVKSGLRFVAPDAFHFTPRLSRLNLSFNALESLSWKTVQGLSLQELVLSGNPLHCSCALRWLQRWEEEGLGGVPEQKLQCHGQGPLAHMPNASCGVPTLKVQVPNASVDVGDDVLLRCQVEGRGLEQAGWILTELEQSATVMKSGGLPSLGLTLANVTSDLNRKNVTCWAENDVGRAEVSVQVNVSFPASVQLHTAVEMHHWCIPFSVDGQPAPSLRWLFNGSVLNETSFIFTEFLEPAANETVRHGCLRLNQPTHVNNGNYTLLAANPFGQASASIMAAFMDNPFEFNPEDPIPVSFSPVDTNSTSGDPVEKKDETPFGVSVAVG

How the values were obtained:
[1] = molecular target: p75^NTR receptor immobilized on the SPR sensor surface; test: SPR, receptor immobilized, steady-state 1:1 fit (KDeq)
[2] = molecular target: TrKA receptor immobilized on the SPR sensor surface; test: as above
[3] = molecular target: T1, rhNGF-1: recombinant human NGF from R&D Systems Inc (product code: 256-GF/CF), manufactured in a mouse … (human, UniProt P01138 122-241; P01138 122-240; P01138 122-239; P01138 122-238); test: as above
T1 construct: A commercial MIXTURE of isoforms, not a complex of four chains: the four entries are alternative forms

[4] = molecular target: T2, Recombinant human NGF (rhNGF) having an aminoacid sequence of 118 aminoacids (rhNGF-118) (human, UniProt P01138 122-239); test: as above
T2 construct: Made in E. coli from proNGF mutant SP174-101

[5] = molecular target: T1, rhNGF-1: recombinant human NGF from R&D …; test: SPR, receptor immobilized, kinetic fit (BIA evaluation)
[6] = molecular target: T1, rhNGF-1: recombinant human NGF from R&D …; test: SPR, receptor immobilized, kinetic Kd (Koff/Kon)
[7] = molecular target: T2, Recombinant human NGF (rhNGF) having an …; test: SPR, receptor immobilized, kinetic Kd (Koff/Kon)
[8] = molecular target: T2, Recombinant human NGF (rhNGF) having an …; test: SPR, receptor immobilized, kinetic fit (BIA evaluation)

T2 sequence (P01138 122-239 limits assumed): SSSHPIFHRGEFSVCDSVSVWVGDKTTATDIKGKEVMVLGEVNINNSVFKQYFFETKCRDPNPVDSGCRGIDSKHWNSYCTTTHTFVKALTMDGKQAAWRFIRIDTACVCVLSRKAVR
T1 sequence (P01138 122-241 limits assumed, chain 1 of 4): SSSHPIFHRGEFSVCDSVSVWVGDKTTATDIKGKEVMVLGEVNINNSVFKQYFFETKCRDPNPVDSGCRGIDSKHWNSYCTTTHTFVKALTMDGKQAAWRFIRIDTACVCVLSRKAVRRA
T1 sequence (P01138 122-240 limits assumed, chain 2 of 4): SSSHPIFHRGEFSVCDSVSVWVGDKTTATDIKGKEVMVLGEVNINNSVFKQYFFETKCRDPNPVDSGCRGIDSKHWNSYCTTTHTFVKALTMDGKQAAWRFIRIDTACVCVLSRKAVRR
T1 sequence (P01138 122-239 limits assumed, chain 3 of 4): as the sequence (P01138 122-239 limits assumed) above
T1 sequence (P01138 122-238 limits assumed, chain 4 of 4): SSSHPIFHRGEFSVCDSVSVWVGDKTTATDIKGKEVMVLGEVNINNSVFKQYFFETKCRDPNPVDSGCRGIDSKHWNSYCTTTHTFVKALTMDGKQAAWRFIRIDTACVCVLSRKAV

Molecule	Kd [1]	Kd [2]	Kd [3]	Kd [4]	koff [5]	kon [5]	Kd [6]	Kd [7]	koff [8]	kon [8]
rhNGF2: recombinant human NGF from Active Bioscience (product code 1745.955), manufactured in CHO cells (from UniProt P01138 122-238) (ligand)	15.7 nM	3.85 nM	–	–	–	–	–	–	–	–
rhNGF3: recombinant human NGF from Sino Biological (product code: 11050-HNAC), manufactured in CHO cells (from UniProt P01138 122-238) (ligand)	39.1 nM	6 nM	–	–	–	–	–	–	–	–
B1	–	–	5.06 nM	7.1 nM	0.0111 s⁻¹	8.3e+06 M⁻¹ s⁻¹	1.33 nM	2.6 nM	–	–
B2	–	–	3.65 nM	4.33 nM	0.00061 s⁻¹	8.3e+06 M⁻¹ s⁻¹	0.0792 nM	0.38 nM	0.00075 s⁻¹	1.67e+06 M⁻¹ s⁻¹
